For one substance, Kd results are on record in publication PMC7952905.

pKd: −log10 of the molar value.

This test deals with human ACE2 extracellular domain (19-615) (human) (UniProt Q9BYF1). Briefly: SPR. In general terms: In SPR one partner is held on a chip, and binding of the other changes the refractive index at the surface.

As usually defined, the pKd is the Kd on a negative log10 scale, so that one unit is a factor of ten.

With “RaTG13 RBD (333-526) (from UniProt A0ABF7PLN6 333-526) (domain or fragment; other documents disagree on this pair)”, the negative-log Kd (pKd) was 6.30.
